The text below walks through data of US20250066499A1 (SUNSHINE GUOJIAN PHARMACEUTICAL SHANGHAI, published 2025).

The target of one experiment is T1, CD73-ND-L138A (human, UniProt P21589 27-317).
T1 construct: Alanine mutant of CD73-ND
T1 sequence: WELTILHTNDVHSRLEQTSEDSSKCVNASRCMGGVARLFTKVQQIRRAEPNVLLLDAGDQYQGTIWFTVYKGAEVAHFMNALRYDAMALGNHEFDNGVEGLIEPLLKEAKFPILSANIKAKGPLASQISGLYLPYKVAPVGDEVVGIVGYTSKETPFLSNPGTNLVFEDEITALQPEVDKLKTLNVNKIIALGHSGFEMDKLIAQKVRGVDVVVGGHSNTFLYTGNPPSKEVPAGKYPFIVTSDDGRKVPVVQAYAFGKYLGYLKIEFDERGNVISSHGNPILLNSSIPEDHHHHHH
Kind of experiment: ELISA, biotinylated antigen on streptavidin plate. On the procedure:
(§1) The ELISA plates were coated with SA protein diluted to 1.5 μg/mL in coating buffer (50 mM carbonate coating buffer, pH 9.6) and incubated overnight at 4° C. The supernatant was discarded, and the plates were washed three times with PBST. Then, 5% skimmed milk powder prepared with PBS was added for blocking and the plates were incubated for 2 h at 37° C. After washing the plates once with PBST, CD73-biotin protein (prepared by biotinylating CD73-His protein according to the EZ-Link NHS-Biotin Reagent instructions) was diluted to 0.5 μg/mL and added at 100 μL/well for incubation at room temperature for 1 h. The plates were washed three times with PBST, and the prepared murine-derived monoclonal antibodies against human CD73 were serially diluted with 1% BSA buffer prepared with PBST and added to the ELISA plates at 100 μl/well. The plates were incubated at 37° C. for 1 h. After washing the plates three times with PBST, HRP-labeled goat anti-mouse IgG secondary antibody was added and the plates were incubated for 30 min at 37° C. After washing the plates three times with PBST, the residual droplets were patted dry on absorbent paper as much as possible. Then, 100 μl of TMB color developing solution was added to each well, and the plates were incubated in the dark at room temperature for 5 min for color development. Subsequently, 50 μl of 2M H₂SO₄ stop solution was added to each well to terminate the substrate reaction. The OD values were read at 450 nm using a multimode microplate reader to analyze the binding ability of the tested antibodies to the target antigen human CD73-His.
(§2) Referring to the experimental method in Example 3, the affinity of 48A11-HuV33 for various mutant proteins of CD73-ND was determined. The SA protein was diluted to 1 μg/mL for coating the ELISA plates, and the biotinylated CD73 protein (CD73-biotin) was used at a concentration of 0.1 μg/mL.
Background: In an ELISA, binding on a coated surface is turned into a signal by an enzyme label.

Another experiment deals with T2, CD73-ND-V137A (human, UniProt P21589 27-317).
T2 construct: Alanine mutant of CD73-ND
T2 sequence: T1 sequence with V137A, A138L
Kind of experiment: ELISA, biotinylated antigen on streptavidin plate. On the procedure: as §1, §2

In the next experiment the target is T3, CD73-ND-L133A (human, UniProt P21589 27-317).
T3 construct: Alanine mutant of CD73-ND
T3 sequence: T1 sequence with L133A, A138L
Kind of experiment: ELISA, biotinylated antigen on streptavidin plate. On the procedure: as §1, §2

Another experiment deals with T4, CD73-ND-P134A (human, UniProt P21589 27-317).
T4 construct: Alanine mutant of CD73-ND
T4 sequence: T1 sequence with P134A, A138L
As to the kind of experiment: ELISA, biotinylated antigen on streptavidin plate. On the procedure: as §1, §2

The next experiment addresses T5, CD73-ND-his (human, UniProt P21589 27-317).
T5 construct: Biotinylated and captured on streptavidin in the ELISA
T5 sequence: T1 sequence with A138L
As to the kind of experiment: ELISA, biotinylated antigen on streptavidin plate. On the procedure:
as §1, §2

For a further experiment, the target named is T6, CD73-CD-his (human, UniProt P21589 337-549).
T6 construct: it fits residue S549 of P21589 (27+522)
T6 sequence: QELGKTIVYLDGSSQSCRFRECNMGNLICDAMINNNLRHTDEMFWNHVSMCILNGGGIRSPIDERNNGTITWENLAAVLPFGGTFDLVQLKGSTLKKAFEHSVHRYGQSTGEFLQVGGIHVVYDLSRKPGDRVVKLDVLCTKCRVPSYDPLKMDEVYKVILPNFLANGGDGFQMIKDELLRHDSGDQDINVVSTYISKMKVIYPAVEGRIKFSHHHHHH
Kind of experiment: ELISA as in Example 3, antigen CD73-CD-his, antibody titrated, absorbance 450 nm.

Changes are numbered by the printed parent chain.

B1: 48A11-HuV33 (antibody, human IgG4, V domains shown)
VH: QVQLVQSGAEVKKPGASVKVSCKASGYTFTSYWMHWVRQAPGQGLEWIGEINPSIGRTNYNEKFKSRVTLTRDTSTSTAYMELSSLRSEDTAVYYCARRVYGTMDYWGQGTLVTVSS
VL: DIQMTQSPSSLSASVGDRVTITCKASQDINSYLSWFQQKPGKSPKLLIYRANIWVDGVPSRFSGSGSGQDYTFTISSLQPEDIATYYCLQYDELYTFGQGTKVEIK
notes: Humanized
What is called EC50 is the concentration needed to bring the measured effect to its halfway point. Regarding B1, the EC50 came out at 0.182 nM with CD73-ND-L138A; 0.891 nM in the experiment with CD73-ND-V137A; 25.8 nM in the experiment with CD73-ND-L133A; 0.205 nM in the experiment with CD73-ND-P134A; 0.152 nM with CD73-ND-his.

B2: 56B10-HuV31 (antibody, human IgG4, V domains shown)
VH: QVQLQQSGAEVKKPGASVKVSCKASGYTFTRYYIYWVRQRPGQGLEWIGWIYPGNFNTKYNEKFKGRATLTADTSASTAYMELSSLTSEDTAVYYCARDVYDYAGFAYWGQGTLVTVSS
VL: DIQLTQSPSFLSASVGDRVTITCKASQGVATAVAWYQQKPGQSPKLLIYWASTRHTGVPDRFSGSGSGTEFTLTISSLQPEDFATYYCQQYSSYPWTFGQGTKVEIK
notes: Humanized
Consider B2, for which the binding result with CD73-CD-his is “no binding (tested: 10 nM)”.
